The numbers were not newly measured in PMC4114557, which cites them from elsewhere.

Like-named read-outs stand apart in the source and are kept apart here.

The target in series [1] is Colicin E3 R-domain (Escherichia coli) (UniProt P00646).
In series [2] the target is Colicin E9 R-domain (Escherichia coli) (UniProt P09883).
In series [3] the target is BtuB (Escherichia coli) (UniProt P06129).
The target is the same in series [4]. The source holds these as a separate data set.
For series [5], the target named is OmpF (Escherichia coli) (UniProt P02931).
Sequence of UniProt P02931 (P02931 23-362): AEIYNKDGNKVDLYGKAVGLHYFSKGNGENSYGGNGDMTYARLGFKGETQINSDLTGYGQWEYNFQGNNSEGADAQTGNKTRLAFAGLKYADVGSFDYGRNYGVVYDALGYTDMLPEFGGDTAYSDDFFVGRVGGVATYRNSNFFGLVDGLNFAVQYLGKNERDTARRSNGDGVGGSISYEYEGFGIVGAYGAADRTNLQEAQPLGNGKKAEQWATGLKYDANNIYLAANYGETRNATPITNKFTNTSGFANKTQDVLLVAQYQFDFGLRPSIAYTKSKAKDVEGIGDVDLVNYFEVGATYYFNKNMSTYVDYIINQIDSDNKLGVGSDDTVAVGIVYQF
Series [6] shares this target. The source holds these as a separate data set.
The target in series [7] is BtuB (Escherichia coli) (UniProt P06129). The source holds these as a separate data set.
Series [8] concerns the target OmpF (Escherichia coli) (UniProt P02931). The source holds these as a separate data set.

For BtuB (from UniProt P06129), the Kd in series [1] and in series [2] was 1 nM each time.
With “Colicin E2 R-domain (from UniProt P04419)”, in the series with BtuB (Escherichia coli) [3], the Kd (usually the constant that tells how readily two partners part at equilibrium) was 1 nM.
As for “Colicin E3 R-domain (from UniProt P00646)”, the Kd with BtuB (Escherichia coli) [4] was 1 nM.
Take Colicin E9 OBS1 (from UniProt P09883): in the series with OmpF (Escherichia coli) [5], the Kd was 2000 nM.
On to Colicin E9 OBS2 (from UniProt P09883), for which, in the series with OmpF (Escherichia coli) [6], the Kd is 24000 nM.
As to “Colicin E9 R-domain (from UniProt P09883)”, the Kd in the series with BtuB (Escherichia coli) [7] is 1 nM.
Consider “Colicin N T-domain (from UniProt P08083)”, for which the Kd with OmpF (Escherichia coli) [8] was 3000 nM.
